# Literature values, collected in paper PMC4212800.
# Molecular target: CD4 D1-D2 (Homo sapiens) (UniProt P01730)
substance,measurement,value
Ibalizumab,Kd,0.0825 nM
